Measured values reported in publication PMC11410778.

Experiments:
[1] = target: cOmpT D267S/S276T (Escherichia coli (avian pathogenic strain E058)) (UniProt P09169)
[2] = target: plasmid-encoded OmpT (pOmpT or ArlC) of avian pathogenic Escherichia coli E058 (Escherichia coli (avian pathogenic strain E058))
[3] = target: chromosome-encoded OmpT (cOmpT) of avian pathogenic Escherichia coli E058 (Escherichia coli (avian pathogenic strain E058)) (UniProt P09169)
[4] = target: pOmpT S267D/T276S (Escherichia coli (avian pathogenic strain E058))
[5] = target: cOmpT D267S (Escherichia coli (avian pathogenic strain E058)) (UniProt P09169)
[6] = target: pOmpT T276S (Escherichia coli (avian pathogenic strain E058))
[7] = target: cOmpT S276T (Escherichia coli (avian pathogenic strain E058)) (UniProt P09169)
[8] = target: pOmpT S267D (Escherichia coli (avian pathogenic strain E058))

Work on “synthetic FRET substrate 2Abz-SLGRKIQI-K(Dnp)-NH2 (peptide)” yielded a Km of cleavage of the FRET substrate by whole E. coli BL21 expressing the protease (0–240 μM substrate, Michaelis–Menten fit) [1] of 0.0408 µM, a Km of cleavage of the FRET substrate by whole E. coli BL21 expressing the protease (0–240 μM substrate, Michaelis–Menten fit) [2] of 0.0667 µM and a Km of cleavage of the FRET substrate by whole E. coli BL21 expressing the protease (0–240 μM substrate, Michaelis–Menten fit) [3] of 0.0107 µM. The Km of cleavage of the FRET substrate by whole E. coli BL21 expressing the protease (0–240 μM substrate, Michaelis–Menten fit) [4] was 0.0215 µM, the Km of cleavage of the FRET substrate by whole E. coli BL21 expressing the protease (0–240 μM substrate, Michaelis–Menten fit) [5] was 0.0167 µM and the Km of cleavage of the FRET substrate by whole E. coli BL21 expressing the protease (0–240 μM substrate, Michaelis–Menten fit) [6] was 0.0157 µM. The Km of cleavage of the FRET substrate by whole E. coli BL21 expressing the protease (0–240 μM substrate, Michaelis–Menten fit) [7] was 0.0475 µM and the Km of cleavage of the FRET substrate by whole E. coli BL21 expressing the protease (0–240 μM substrate, Michaelis–Menten fit) [8] was 0.0281 µM.
